Measured values taken from patent US20250188154A1.

Experiments:
[1] = biological target: SARS-CoV live virus spike (SARS-CoV) (UniProt P59594); assay: cell-based or functional assay
[2] = biological target: bat CoV RsSHC014 live virus spike (bat coronavirus RsSHC014); assay: cell-based or functional assay
[3] = biological target: bat CoV WIV-1 live virus spike (bat coronavirus WIV-1); assay: cell-based or functional assay
[4] = biological target: rhFcγRI/CD64 (human) (UniProt P12314); assay: SPR, DH1042 captured on CM5, receptor titrated
Chain of UniProt P12314 (P12314 16-288 limits assumed): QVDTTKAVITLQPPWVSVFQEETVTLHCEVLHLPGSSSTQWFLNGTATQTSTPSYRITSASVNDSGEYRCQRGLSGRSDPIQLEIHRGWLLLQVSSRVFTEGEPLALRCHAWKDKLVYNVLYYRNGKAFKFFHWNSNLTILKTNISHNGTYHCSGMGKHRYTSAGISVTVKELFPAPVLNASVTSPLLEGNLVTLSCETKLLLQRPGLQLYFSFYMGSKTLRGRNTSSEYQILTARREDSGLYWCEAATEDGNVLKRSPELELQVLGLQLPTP

[5] = biological target: rhFcγRIIIA/CD16a (human) (UniProt P08637); assay: SPR, DH1042 captured on CM5, receptor titrated
Chain of UniProt P08637 (P08637 17-208 limits assumed): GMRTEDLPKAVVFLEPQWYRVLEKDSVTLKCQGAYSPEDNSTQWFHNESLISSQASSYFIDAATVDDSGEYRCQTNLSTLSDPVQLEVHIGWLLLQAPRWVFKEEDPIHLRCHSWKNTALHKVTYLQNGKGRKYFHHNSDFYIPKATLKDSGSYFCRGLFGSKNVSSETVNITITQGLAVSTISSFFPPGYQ

[6] = biological target: Cent B, centromere B (human) (UniProt P07199); assay: AtheNA Luminex, mAb at 25 (mg/mL [sic]); <100 negative
Chain of UniProt P07199 (P07199 2-599): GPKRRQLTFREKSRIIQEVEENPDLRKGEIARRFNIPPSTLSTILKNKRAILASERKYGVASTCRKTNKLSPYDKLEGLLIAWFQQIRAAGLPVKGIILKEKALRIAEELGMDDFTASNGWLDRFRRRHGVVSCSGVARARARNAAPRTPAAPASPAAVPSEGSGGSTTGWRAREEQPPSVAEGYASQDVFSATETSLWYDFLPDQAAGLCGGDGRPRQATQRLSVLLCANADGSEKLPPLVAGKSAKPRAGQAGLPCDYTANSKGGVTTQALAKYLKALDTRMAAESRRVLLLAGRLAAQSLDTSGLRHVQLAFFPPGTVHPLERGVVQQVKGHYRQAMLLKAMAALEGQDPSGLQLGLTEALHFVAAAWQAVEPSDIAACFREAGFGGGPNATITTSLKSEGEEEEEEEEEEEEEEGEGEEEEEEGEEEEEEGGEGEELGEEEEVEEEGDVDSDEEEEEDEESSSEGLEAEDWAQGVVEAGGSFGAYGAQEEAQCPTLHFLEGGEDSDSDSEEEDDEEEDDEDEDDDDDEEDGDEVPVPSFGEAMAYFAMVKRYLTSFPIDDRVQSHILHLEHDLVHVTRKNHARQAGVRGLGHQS

[7] = biological target: Histone (human); assay: as above
[8] = biological target: Jo 1 (human) (UniProt P12081); assay: as above
Chain of UniProt P12081 (P12081 2-509): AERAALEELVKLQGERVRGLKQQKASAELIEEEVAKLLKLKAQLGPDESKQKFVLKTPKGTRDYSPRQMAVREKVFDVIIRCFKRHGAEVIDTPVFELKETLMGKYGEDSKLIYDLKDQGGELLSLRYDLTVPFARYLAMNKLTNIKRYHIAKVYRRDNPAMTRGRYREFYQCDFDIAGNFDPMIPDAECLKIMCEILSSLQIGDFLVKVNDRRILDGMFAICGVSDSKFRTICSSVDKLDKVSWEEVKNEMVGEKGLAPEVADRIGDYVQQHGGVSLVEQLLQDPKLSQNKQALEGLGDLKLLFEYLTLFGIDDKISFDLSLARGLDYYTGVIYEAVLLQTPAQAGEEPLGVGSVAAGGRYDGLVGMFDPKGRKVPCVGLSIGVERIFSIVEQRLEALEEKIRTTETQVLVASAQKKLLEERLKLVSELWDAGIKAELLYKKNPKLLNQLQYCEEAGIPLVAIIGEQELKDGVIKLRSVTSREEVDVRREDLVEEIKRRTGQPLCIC

[9] = biological target: RNP, ribonucleoprotein (human) (UniProt Q96LT9); assay: as above
Chain of UniProt Q96LT9 (Q96LT9 whole entry): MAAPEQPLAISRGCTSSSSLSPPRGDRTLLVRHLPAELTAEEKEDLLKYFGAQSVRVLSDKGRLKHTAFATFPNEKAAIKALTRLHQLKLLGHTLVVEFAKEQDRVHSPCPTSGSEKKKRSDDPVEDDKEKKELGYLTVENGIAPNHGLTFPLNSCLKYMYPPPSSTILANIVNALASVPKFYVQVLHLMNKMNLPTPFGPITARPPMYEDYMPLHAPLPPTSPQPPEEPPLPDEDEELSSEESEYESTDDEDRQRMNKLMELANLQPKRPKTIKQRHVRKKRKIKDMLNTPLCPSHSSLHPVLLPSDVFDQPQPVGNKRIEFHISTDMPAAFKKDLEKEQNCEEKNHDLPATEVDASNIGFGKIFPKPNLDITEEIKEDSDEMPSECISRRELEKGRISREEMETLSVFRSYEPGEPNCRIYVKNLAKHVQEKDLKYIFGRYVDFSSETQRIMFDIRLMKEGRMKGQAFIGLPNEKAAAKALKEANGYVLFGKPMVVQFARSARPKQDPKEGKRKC

[10] = biological target: SSA, Sjogren's syndrome antigen A (human); assay: as above
[11] = biological target: SSB, Sjogren's syndrome antigen B (human) (UniProt P05455); assay: as above
Chain of UniProt P05455 (P05455 whole entry): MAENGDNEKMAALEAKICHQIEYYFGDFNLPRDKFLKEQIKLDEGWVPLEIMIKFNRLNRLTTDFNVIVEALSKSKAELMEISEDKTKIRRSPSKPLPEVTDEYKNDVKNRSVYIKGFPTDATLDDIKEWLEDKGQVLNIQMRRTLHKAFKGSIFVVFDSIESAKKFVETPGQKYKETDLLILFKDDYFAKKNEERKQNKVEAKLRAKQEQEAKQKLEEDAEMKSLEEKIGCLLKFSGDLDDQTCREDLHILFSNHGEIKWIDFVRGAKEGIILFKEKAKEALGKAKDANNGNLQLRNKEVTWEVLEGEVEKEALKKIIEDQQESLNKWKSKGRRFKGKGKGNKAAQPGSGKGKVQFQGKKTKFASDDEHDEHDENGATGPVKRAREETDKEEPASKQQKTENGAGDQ

[12] = biological target: Scl 70, scleroderma 70 (human) (UniProt P11387); assay: as above
Chain of UniProt P11387 (P11387 2-765): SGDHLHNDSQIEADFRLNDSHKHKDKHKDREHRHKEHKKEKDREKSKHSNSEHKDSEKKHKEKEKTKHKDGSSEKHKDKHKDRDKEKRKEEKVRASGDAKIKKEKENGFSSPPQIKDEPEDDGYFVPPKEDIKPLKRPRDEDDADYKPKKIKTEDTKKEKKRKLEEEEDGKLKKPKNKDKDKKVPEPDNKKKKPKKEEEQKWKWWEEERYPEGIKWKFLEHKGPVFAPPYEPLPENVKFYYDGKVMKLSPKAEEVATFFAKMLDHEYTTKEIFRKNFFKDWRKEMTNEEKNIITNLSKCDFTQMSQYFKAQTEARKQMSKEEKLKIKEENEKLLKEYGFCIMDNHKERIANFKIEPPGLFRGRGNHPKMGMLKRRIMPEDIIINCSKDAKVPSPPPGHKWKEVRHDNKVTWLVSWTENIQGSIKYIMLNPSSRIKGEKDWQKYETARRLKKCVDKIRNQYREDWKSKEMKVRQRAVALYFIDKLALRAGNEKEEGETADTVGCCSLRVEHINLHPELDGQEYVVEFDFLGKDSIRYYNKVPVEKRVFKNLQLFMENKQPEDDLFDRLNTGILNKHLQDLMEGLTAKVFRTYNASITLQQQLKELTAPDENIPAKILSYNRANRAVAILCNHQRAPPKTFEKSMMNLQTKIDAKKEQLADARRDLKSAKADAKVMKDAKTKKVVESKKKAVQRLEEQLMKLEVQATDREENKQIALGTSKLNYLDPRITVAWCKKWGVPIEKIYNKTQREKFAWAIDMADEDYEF

[13] = biological target: Sm, small nuclear riboproteins (human); assay: as above
[14] = biological target: Cent B, centromere B (human) (UniProt P07199); assay: AtheNA Luminex, mAb at 50 (mg/mL [sic]); <100 negative
[15] = biological target: Histone (human); assay: as above
[16] = biological target: Jo 1 (human) (UniProt P12081); assay: as above
[17] = biological target: RNP, ribonucleoprotein (human) (UniProt Q96LT9); assay: as above
[18] = biological target: SSA, Sjogren's syndrome antigen A (human); assay: as above
[19] = biological target: SSB, Sjogren's syndrome antigen B (human) (UniProt P05455); assay: as above
[20] = biological target: Scl 70, scleroderma 70 (human) (UniProt P11387); assay: as above
[21] = biological target: Sm, small nuclear riboproteins (human); assay: as above
[22] = biological target: Cent B, centromere B (human) (UniProt P07199); assay: AtheNA Luminex, mAb at 12.5 (mg/mL [sic]); <100 negative
[23] = biological target: Histone (human); assay: as above
[24] = biological target: Jo 1 (human) (UniProt P12081); assay: as above
[25] = biological target: RNP, ribonucleoprotein (human) (UniProt Q96LT9); assay: as above
[26] = biological target: SSA, Sjogren's syndrome antigen A (human); assay: as above
[27] = biological target: SSB, Sjogren's syndrome antigen B (human) (UniProt P05455); assay: as above
[28] = biological target: Scl 70, scleroderma 70 (human) (UniProt P11387); assay: as above
[29] = biological target: Sm, small nuclear riboproteins (human); assay: as above
[30] = biological target: Cent B, centromere B (human) (UniProt P07199); assay: AtheNA Luminex, mAb at 6.25 (mg/mL [sic]); <100 negative
[31] = biological target: Histone (human); assay: as above
[32] = biological target: Jo 1 (human) (UniProt P12081); assay: as above
[33] = biological target: RNP, ribonucleoprotein (human) (UniProt Q96LT9); assay: as above
[34] = biological target: SSA, Sjogren's syndrome antigen A (human); assay: as above
[35] = biological target: SSB, Sjogren's syndrome antigen B (human) (UniProt P05455); assay: as above
[36] = biological target: Scl 70, scleroderma 70 (human) (UniProt P11387); assay: as above
[37] = biological target: Sm, small nuclear riboproteins (human); assay: as above
[38] = biological target: SARS-CoV-2 Spike-2P stabilized S ectodomain trimer (SARS-CoV-2) (UniProt P0DTC2); assay: SPR
[39] = biological target: SARS-CoV-2 spike-HexaPro; assay: SPR

With DH1047 (antibody) the live virus neutralization IC50 [1] was 0.028 µg/mL, the live virus neutralization IC50 [2] was 0.2 µg/mL and the live virus neutralization IC50 [3] was 0.191 µg/mL.

For DH1042 (antibody), the Kd [4] was 414000 nM, the Kd [5] was 406 nM and the AtheNA value [6] was 26. For the same substance, the AtheNA value [7] was 6, the AtheNA value [8] was 4 and the AtheNA value [9] was 4. The AtheNA value [10] was 2, the AtheNA value [11] was 5 and the AtheNA value [12] was 2. For the same substance, the AtheNA value [13] was 2, the AtheNA value [14] was 56 and the AtheNA value [15] was 9. For the same substance, the AtheNA value [16] was 2, the AtheNA value [17] was 6 and the AtheNA value [18] was 2. It also gave an AtheNA value [19] of 4, an AtheNA value [20] of 1 and an AtheNA value [21] of 3. It also gave an AtheNA value [22] of 12, an AtheNA value [23] of 3 and an AtheNA value [24] of 1. For the same substance, the AtheNA value [25] was 0, the AtheNA value [26] was 3 and the AtheNA value [27] was 2. It also gave an AtheNA value [28] of 0, an AtheNA value [29] of 1 and an AtheNA value [30] of 6. It also gave an AtheNA value [31] of 2, an AtheNA value [32] of 2 and an AtheNA value [33] of 1. For the same substance, the AtheNA value [34] was 1, the AtheNA value [35] was 3 and the AtheNA value [36] was 1. It also gave an AtheNA value [37] of 3.

For DH1047, the Kd [38] was < 0.1 nM and the Kd [39] was 0.08 nM.

DH1042 gave a Kd [38] of 0.6 nM and a Kd [39] of 0.8 nM.
